Results taken from US20160045158A1, “DEVICES, SYSTEMS, AND METHODS FOR TRANSDERMAL DELIVERY OF COMPOUNDS” (PROMETHEON PHARMA, LLC, priority 2013, published 2016).

How the values were obtained:
[1] = cited from earlier work
[2] = test system: EpidermFT™ (MatTek) full thickness human skin equivalent tissues; assay: Transdermal flux/accumulation across EpidermFT full thickness human skin equivalents (Iso-Insulin ELISA of receptor fluid); assay type: in vitro ADME
Protocol: Proof-of-concept ex vivo studies of transdermal delivery of long-acting insulin analogues by a poloxamer 188, propylene glycol and lauracopram formulation designated TopiconDM™ were performed using metabolically active full thickness human skin equivalent (HSE) inserts from EpidermFT™ (MatTek) grown on a semi-permeable membrane that allows test compounds to pass through the tissue and accumulate in the receptor fluid on the other side. It is important to note that the term TopiconDM™ is a trademark, is not descriptive of the subject formulation, and is merely an indication of the source of the subject formulation. Thus, the use of the term TopiconDM™ herein shall not be used to affect any trademark rights associated with the term TopiconDM™.
All transdermal delivery in this model occurs exclusively by permeation across the barrier-enhanced stratum corneum. Drug permeation studies were modeled according to classic Franz cell in-sink diffusion studies. Studies were carried out for 5-7 continuous days to determine whether a 7-day TopiconDM™ basal insulin patch containing an insulin or insulin analogue is feasible. A semi-high throughput protocol was developed for the use of EpidermFT™, a barrier enhanced, mitotically and metabolically active human skin tissue model.
To determine the feasibility of creating a 7-day (weekly) TopiconDM™ insulin glargine patch, a protocol was developed in which the tissue inserts were incubated in tissue culture maintenance medium (with serum). All insulin and insulin analogues were commercially purchased and lyophilized. TopiconDM™ insulin glargine formulations were specifically adjusted to pH 4.0; all other insulin formulations were adjusted to pH ˜7 were prepared to deliver doses ranging from 0.01-50 IU in a volume of 50 microliters at 32° C. applied to the apical surface of individual 0.6 cm^2 EpidermFT™ (MatTek) full thickness human skin equivalent tissues in 6-well plates containing 2.0 ml of receptor fluid incubated at 32° C. throughout the duration of each study. It was empirically determined that 50 microliters of the formulations was sufficient to cover the entire surface of the tissue inserts when applied directly to the center. 200 microliter samples from the receptor chamber on the basal side were removed at 0.5, 1, 2, 3, 6, 8, 12, 20, 24 hours and then every 24 hours for up to 7-days; 200 microliters of fresh maintenance medium with serum was added back to receptor chamber after each sampling (closed system model). Plasma insulin and insulin analogue accumulation in mIU/cm^2 (reflecting transdermal delivery across 0.6 cm^2 tissue surface area) was quantified using the Iso-Insulin ELISA Kit (Mercodia AB, Uppsala, Sweden).
The MatTek EpidermFT™ (EFT-300) tissues are also documented to have more of the structural features of the basement membrane. […] The saturating dose for insulin glargine is 10 U/0.6 cm^2 since the flux is not increased at a dose of 20 U/0.6 cm^2. Indeed, the accumulation curves for these doses are superimposable. Results reflect ELISA measurements (Mercodia Iso-Insulin) performed in triplicate for samples at each time point.

[3] = Plasma glargine PK in STZ-induced male CD hairless rats (type 1 DM); assay type: in vivo, rat; conditions: single 2 U subcutaneous injection
Protocol: (§1) Referring to FIG. 14, shown is a 24 Hour PK/PD study showing rapid appearance in and elimination of SC Injected Glargine from the Systemic Circulation. The red plot is the glargine concentration from pooled plasma (average±std dev of ELISA measurements). Blue plot is blood glucose (BG) concentration (average±std dev) measured by ACCU-CHEK® Aviva glucose meter. Average BG (blue line) and range (white horizontal bar) in normal CD hairless rats was determined to be ˜130 mg/dL (100-160 mg/dL) in a cohort of adult rats weighing ˜250 gm.
ELISA to quantitate the plasma glargine level was performed in triplicate on pooled blood for each time point (alternating N=2 and N=3) using the Mercodia Iso-Insulin kit. Blood samples were pooled to allow for adequate sampling of many time points over the course of 24-hour study and to reduce variability. This method has been validated for performing PK studies.
(§2) Green plot is plasma glargine concentration (average±std dev). Brown plot is blood glucose concentration (average±std dev) measured by ACCU-CHEK® Aviva glucose meter. Measurements were obtained from all individual animals (N=4) at each time point (i.e. blood samples were not pooled). ELISA to quantitate the plasma glargine level was performed in triplicate on blood samples from individual animals (N=4) at each time point using the Mercodia Iso-Insulin kit.

[4] = test system: STZ-Induced Male CD Hairless Rat: Type 1 DM; assay: Blood glucose PD in STZ-induced male CD hairless rats (type 1 DM); assay type: in vivo
Protocol: as §1
PD (Y-axis scale on right): The blood glucose (BG) and plasma glargine plots are essentially minor images of each other, consistent with an expected dramatic BG lowering effect after insulin glargine injection. The baseline mean BG of ˜375 mg/dL rapidly reached a nadir of ˜70-80 mg/dL that was persistent between 0.5-5 hours, representing asymptomatic hypoglycemia.
as §2
Referring to FIG. 16, A PD study of insulin glargine BG lowering effect comparing 1 U subcutaneous (sc) injection (gold standard) versus 5 U/1 cm^2 patch was performed. Referring to FIG. 18, the blue plot is BG concentration (average±std dev) of rats that received a single 1 U subcutaneous injection. Brown plot is BG concentration of rats that received a 5 U/1 cm^2 patch. BG measurements by ACCU-CHEK® Aviva glucose meter were obtained from all individual animals (N=4) at each time point (i.e. blood samples were not pooled). ELISA to quantitate the plasma glargine level was performed in triplicate on blood samples from individual animals (N=4) at each time point using the Mercodia Iso-Insulin kit.

[5] = assay type: in vitro ADME, human
Protocol: In human studies, the total plasma free insulin concentration reached a plateau concentration of 18.9 µIU/mL based on a well cited published study of glargine pharmacokinetics after a single subcutaneous injection in type 1 diabetic subjects over 3-24 hours (Lepore, M et al 2000, Diabetes 49:2142-2148). However, the actual steady-state plateau glargine concentration was 6.4 µIU/mL because the patients were titrated to an insulin concentration of ˜12.5 µIU/mL with a continuous lispro short-acting insulin infusion before glargine was administered. After scaling for average adult blood volume of 5 L and adjusting for known cross-reactivity of our ELISA assay with various insulin analogues (44% for glargine, 22% for detemir), a table comparing patch size and insulin dose required to achieve targets of 6.4 µIU/mL within 24 hours after administration of TopiconDM™ containing insulin glargine could be determined. […] However, it is apparent that the 10 IU/0.6 cm^2 dose of insulin glargine can achieve and maintain a target steady-state total insulin concentration of 6.4 µIU/mL with a 0.6×0.6 cm patch throughout the 5-days of the study.
The concentration of insulin glargine achieved is based on accumulation in 2.5 ml of receptor volume in the tissue model extrapolated to average adult blood volume of 5 L. […]

[6] = test system: keratinized apical layer of the mouse cervix; conditions: in vivo
Source text: The P188/PG (80/20 ratio) co-polymer was then used to deliver FITC-tagged 38 amino acid cytotoxic decoy peptides.
To achieve topical delivery of decoy peptides into the entire mouse cervical T-zone, a solid FITC-tagged decoy peptide-containing co-polymer/enhancer rod was manually delivered into the endocervical canal and into one of the 2 cervical/uterine horns of a 7 month old K14E6 homozygous female transgenic mouse expressing the HPV type 16 E6 oncoprotein that synergizes with 1713-estradiol to induce low-grade dysplasia (CIN I, II) in situ that closely mimics the step-wise development of human cervical cancer; the “untreated” cervical served as an internal control.
After animals were anesthetized, a “speculum” comprised of a standard P-100 pipette tip with the tip cut off at the midpoint along its length was inserted into the vagina to expose the opening of the cervical canal. A three-fourth inch long, 24-guage catheter (Teruma Surflush; inner diameter 0.47 mm) with the trocar removed was fit onto a compatible P-10 micropipette. The catheter was loaded with the peptide-containing, liquid co-polymer/enhancer formulation to a length that approximates the entire cervical T-zone and extends across the squamo-columnar junction into the uterine horn. […]
1 mM FITC-conjugated *Br1 was used for direct visualization of peptide delivery by fluorescence microscopy. […]

insulin detemir
Cmax for adults ([1]; single 0.5 U/kg dose, patients with type 1 DM): 208 microU/mL

insulin lispro
flux dose-response [2]: clear dose-response

Human growth hormone (hGH): human growth hormone (22 kDa)
flux dose-response [2]: clear dose-response

insulin aspart
flux dose-response [2]: clear dose-response

insulin glulisine
flux dose-response [2]: clear dose-response

insulin glargine
return of plasma concentration to baseline level [3]: ≤ 5 h | t1/2 [3]: ~2 h | Cmax (plasma glargine) ([3]; adult rats ~250 gm): ~120 microU/mL | actual steady-state plateau glargine concentration ([1]; after subtracting ~12.5 µIU/mL lispro infusion background): 6.4 µIU/mL | total plasma free insulin plateau concentration ([1]; single subcutaneous injection of glargine, type 1 diabetic subjects, over 3-24 hours (Lepore 2000)): 18.9 µIU/mL | mean plateau plasma concentration ([1]; single subcutaneous injection, patients with type 1 diabetes): ~6.4 micoU/mL | flux dose-response [2]: clear dose-response | saturating dose (flux not increased at 20 U/0.6 cm^2) [2]: 10 U/0.6 cm^2 | hypoglycemia (BG<100 mg/dL) ([4]; 1 U sc injection): rapidly became hypoglycemic | hypoglycemia (BG<100 mg/dL) ([4]; 2 U sc injection): rapidly became hypoglycemic | period during which blood glucose nadir persisted ([4]; 2 U subcutaneous injection): 0.5 to 5 h | blood glucose nadir ([4]; 2 U subcutaneous injection, baseline mean BG ~375 mg/dL): 70 to 80 mg/dL | size of patch required to achieve and maintain target levels [5]: under 1 cm×1 cm

ERQIKIWFQNRRMKWKKATGCLLDDGLEGLFEDID [*Br1]
penetration across keratinized apical layer of mouse cervix / cervical squamous epithelium [6]: Successful transdermal delivery
